T1: N-terminal FLAG-tagged cynomolgus monkey ROBO4, cynoROBO4-1 (pCI-FLAG-cynoROBO4-1) (cynomolgus monkey, UniProt Q8WZ75 28-1007 (human entry))
T1 chain: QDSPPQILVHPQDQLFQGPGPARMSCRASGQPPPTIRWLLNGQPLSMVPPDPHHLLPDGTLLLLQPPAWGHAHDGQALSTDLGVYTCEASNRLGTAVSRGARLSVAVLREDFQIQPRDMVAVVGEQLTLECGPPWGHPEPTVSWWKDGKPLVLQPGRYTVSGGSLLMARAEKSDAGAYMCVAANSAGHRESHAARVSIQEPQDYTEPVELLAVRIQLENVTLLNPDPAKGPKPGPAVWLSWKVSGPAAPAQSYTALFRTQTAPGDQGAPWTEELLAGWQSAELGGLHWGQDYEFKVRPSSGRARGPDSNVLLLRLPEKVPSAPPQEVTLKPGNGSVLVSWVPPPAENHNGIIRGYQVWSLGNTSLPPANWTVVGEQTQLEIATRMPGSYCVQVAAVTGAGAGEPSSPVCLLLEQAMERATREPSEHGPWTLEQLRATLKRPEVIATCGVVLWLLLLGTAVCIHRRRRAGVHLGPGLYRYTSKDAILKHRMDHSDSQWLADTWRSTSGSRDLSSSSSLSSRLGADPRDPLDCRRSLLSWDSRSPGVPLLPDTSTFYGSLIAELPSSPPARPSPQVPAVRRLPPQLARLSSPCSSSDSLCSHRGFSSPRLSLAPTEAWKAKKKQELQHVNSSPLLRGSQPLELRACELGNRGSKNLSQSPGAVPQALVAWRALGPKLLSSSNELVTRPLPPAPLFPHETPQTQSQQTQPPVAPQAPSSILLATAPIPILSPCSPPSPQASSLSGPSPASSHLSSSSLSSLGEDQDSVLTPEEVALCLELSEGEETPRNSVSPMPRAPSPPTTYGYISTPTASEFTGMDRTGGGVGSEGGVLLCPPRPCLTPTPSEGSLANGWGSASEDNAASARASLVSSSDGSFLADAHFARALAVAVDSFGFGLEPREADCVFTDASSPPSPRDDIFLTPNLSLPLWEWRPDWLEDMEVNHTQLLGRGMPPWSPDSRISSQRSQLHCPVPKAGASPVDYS

B1: anti-ROBO4 mouse monoclonal antibody MAb1 (antibody, mouse IgG1, V domains shown)
VH: EVQLVESGGGLVKPGGSLKLSCAASGFTFSTYAMSWVRQTPEKRLEWVATISNGGTYTYYPDSVKGRFTISRDNAENTLYLQMSSLRSEDTAMYFCARLIYYDYLDYWGHGTTLTVSS
VL: DAVMTQTPLSLPVSLGDQASISCRSSQSLENSNGNTYLNWYFQKPGQSPQLLIYRVSNRFSGVLDRFSGSGSGTDFTLKISRVEAEDFGVYFCLQVTHVPWTFGGGTKLEIKR
notes: Mouse IgG1 (gamma1), kappa light chain, purified from hybridoma supernatant; also called parent antibody MAb1
B2: humanized MAb1 antibody H-2140 (antibody, human IgG2, kappa, V domains shown)
VH: EVQLVESGGGLVQPGGSLRLSCAASGFTFSTYAMSWVRQAPGKRLEWVATISQGGTYTYYPDSVKGRFTISRDNAKNTLYLQMNSLRAEDTAVYYCARLIYYDYLDYWGQGTLVTVSS
VL: DIVMTQSPLSLPVTLGEPASISCRSSQSLENSNGNTYLNWYLQKPGQSPQLLIYRVSNRFSGVPDRFSGSGSGTDFTLKISRVEAEDVGVYYCLQVTHVPWTFGPGTKVDIKR
notes: Human IgG2 / kappa constant regions; also called hMAb1-H4-type heavy chain + hMAb1-L1-type light chain

Legend:
[1] = biological target: T1, N-terminal FLAG-tagged cynomolgus …; assay: flow cytometry, HEK293 cells transfected with pCI-FLAG-cynoROBO4-1, antibody at 10 µg/mL, anti-mouse IgG FITC; control histogram IgG (Mouse IgG2a)
Method: HEK293 cells were inoculated at a concentration of 1.5×10⁶ cells/dish to a 60-mm dish (manufactured by Corning Inc.) and cultured overnight in a DMEM medium containing 10% FBS at 37° C. under 5% CO₂ conditions. On the next day, the HEK293 cells were transfected with pCI-hROBO4, pCI-mROBO4, pCI-raROBO4, pCI-FLAG-cynoROBO4-1, pCI-FLAG-cynoROBO4-2, pCI-hROBO1, pCI-hROBO2, or pCI-hROBO3 using FuGENE6 Transfection Reagent and further cultured overnight at 37° C. under 5% CO₂ conditions. On the next day, the expression vector-transfected cells were treated with TrypLE Express (manufactured by Life Technologies Corp.), washed with PBS containing 5% FBS, and then suspended in PBS containing 5% FBS. The obtained cell suspension was used in flow cytometry analysis.
Each cell suspension prepared in 4)-3-1 was centrifuged, and the supernatant was removed. Then, MAb1 or a negative control Mouse IgG2a was added at a concentration of 10 μg/mL to 2×10⁵ expression vector-transfected cells, and the resulting suspension was left standing at 4° C. for 1 hour. […] Data was analyzed using Flowjo. The histogram of FITC fluorescence intensity was prepared. The antibody was determined to bind in a cross-species manner when the histogram of MAb1 was shifted to a stronger fluorescence intensity region compared with the histogram of the negative control Mouse IgG2a.

[2] = biological target: T1, N-terminal FLAG-tagged cynomolgus …; assay: flow cytometry (FC500), HEK293 cells transfected with pCI-FLAG-cynoROBO4-1, antibody at 10 µg/mL, FITC goat anti-human IgG Fc; control histogram IgG (human IgG)

Binder | binding result [1] | binding result [2]
B1 | binds | 
B2 |  | binds
